Laboratory results: patent publication US20200131227A1, “POLYPEPTIDE WITH TUMOUR BINDING ACTIVITY” (RUPRECHT-KARLS-UNIVERSITÄT HEIDELBERG, priority 2017, published 2020)
Where a SMILES comes first, the peptide text is derived from it. Bridges are numbered along the chain shown (N, C = ends). Where no end group is shown, it is not given here. The star is where a group is joined. DOTA = O=C(O)CN1CCN(CC(=O)O)CCN(CC(=O)*)CCN(CC(=O)O)CC1; 125I = iodine-125 label on tyrosine, [125I]*

Experiments:
[1] = Small-animal PET imaging, HNO97 xenografts; conditions: Balb/c nude, mouse, in vivo, iv, total radioactivity
Procedure: All experiments were conducted in compliance with the German animal protection laws. Eight week old Balb c/c nude mice (Charles River Laboratories) were inoculated subcutaneously at the right shoulder with 5×10^6 HNO97 cells in BD MatriGel™ (BD Bioscience). Xenografts were grown to a tumor diameter of 10-15 mm. For small animal-PET imaging mice were anesthetized using isoflurane inhalation and injected via tail-vein with 50 MBq (2 nmol) of the ^68Ga-labeled DOTA-SFITGv6 peptide (see above) solution in 100 μL PBS. Images were recorded on an Inveon small-animal PET scanner (Siemens) using a 60 min emission scan in list mode and a 10 min transmission scan. Images were taken in 3-dimensional (3D) mode and reconstructed iteratively with a fully 3D algorithm from a 256×256 matrix for viewing transaxial, coronal, and sagittal slices of 0.9 mm thickness. Pixel size was 0.38×0.38×0.79 mm3 and transaxial resolution obtained was 0.9 mm. For blocking experiments 100 μL of a 1 mM aqueous solution of SFITGv6 was pre-administered intraperitoneally 30 min before injection of the radiolabeled peptide. Biodistribution studies were performed after administration of 100 μL of a 20 nM ^177Lu-DOTA-SFITGv6 solution (1 MBq) as an intravenous bolus injection into the tail vein of the mice. After different time points (30 min to 6 hours) three animals, respectively, were sacrificed. Peripheral blood, heart, lung, spleen, liver, kidneys, muscle, brain, intestine, and injection site (tail, after intravenous injection only) were collected and weighted. Tissue-associated radioactivity was measured in a gamma counter (Berthold LB951G) and expressed as percentage of the injected dose per gram tissue (% ID/g).
All animal experiments were conducted in compliance with the German animal protection laws. For in vivo small animal PET imaging and organ distribution studies eight-week old Balb/c nude mice (Charles River Laboratories) were inoculated subcutaneously at the right shoulder with a total of 5×10^6 tumor cells in MatriGel (BD Bioscience). Xenografts were grown until a tumor diameter of 10-15 mm was reached.
3-dimensional (3D) PET images of whole mice were captured by the Siemens Inveon PET scanner as described in Example 1. To assess the biodistribution 100 μL of a 20 nM solution (1 MBq) of ^177Lu-DOTA-SFLAP3 and ^177Lu-DOTA-SFITGv6 were administered as an intravenous bolus injection into the tail vein of mice. For each time point (30 min to 6 hours) we sacrificed a total of three animals, and subsequently collected peripheral blood, heart, lung, spleen, liver, kidneys, muscle, brain, and intestine. Tissues were weighed and respective radioactivity was measured by a gamma counter (LB951G, Berthold Technologies). Values were expressed as percentage of the injected dose radioactivity (MBq) per gram tissue (% ID/g).

[2] = Small-animal PET imaging, HNO399 xenografts; design: species or system mice; conditions: Balb/c nude, mouse, in vivo, iv, total radioactivity; 60 min after injection; read-out: SUVmean in tumor
[3] = Small-animal PET imaging, HNO223 xenografts; design: species or system mice; conditions: Balb/c nude, mouse, in vivo, iv, total radioactivity; 60 min after injection; read-out: SUVmean in tumor
Capan-2 xenografts = assay: Small-animal PET imaging, Capan-2 xenografts; assay type: in vivo, mice; conditions: 25 MBq
Procedure: 6 to 8 week old Balb c/c nude mice (Charles River Lab.) were inoculated with 5*10^6 Capan-2 cells in 100 μl Opti-MEM medium. After 4 to 6 weeks the tumor has grown 10-15 mm in diameter. For small animal PET imaging 25 MBq of the ^68Ga-labeled peptide (2 nmol) was injected into the tail vein.

[4] = PET/CT scan of HNSCC tumor patient with SFLAP3; assay type: in vivo, human; conditions: human, right cervical lesion, iv, 322 MBq, total radioactivity; read-out: SUVmax right cervical lesion
Description: (§1) The emission data were corrected for randoms, scatter and decay. […] The quantitative assessment of tracer accumulation was done using a region of interest technique and using standardized uptake values (SUV).

HNSCC tumor = assay: PET/CT scan of HNSCC tumor patient with SFLAP3; assay type: in vivo, human
Description: as §1

[5] = tested on: metastasized pancreatic cancer; assay: PET/CT and scintigraphy of pancreatic cancer patient; assay type: in vivo, human; conditions: 1 and 3 hours after injection
Procedure: PET/CT scans of tumor patients and body scintigraphy were performed as described in Example 1.

carcinoma cell lines = assay: In vitro binding of radiolabeled peptides to several carcinoma cell lines; assay type: cell-based, human; conditions: 10^−6 M competitor; all tested HNSCC cell lines
Procedure: For binding studies, 2.5×10^5 to 4×10^5 cells were seeded in 6-well plates and cultivated for 48 hours. Cells were incubated for 60 min with 1 mL serum-free medium containing the ^125I-labeled peptide (see above). For competition experiments, cells were simultaneously exposed to unlabeled (10^-4 M to 10^-10 M) and ^125I-labeled peptides. After three washing steps with PBS (pH 7.4) the cells were lysed with 0.5 mL of 0.3 M NaOH. Experiments concerning the internalization, kinetics and efflux were additionally performed with ^177Lu-DOTA-SFITGv6. To evaluate kinetics and efflux HNO97 cells were incubated for different time intervals (10 min to 480 min) and 60 min, respectively, with ^177Lu-DOTA-SFITGv6 and lysed as described. To continue with the efflux experiment radioactive medium was replaced by non-radioactive medium and cells were incubated again for 60 to 240 min before measuring radioactivity of the cell lysates and the medium. For internalization experiments the cells were exposed to ^177Lu-DOTA-SFITGv6 for different time intervals (10 to 240 min) at 37° C. and 4° C. After three washing steps with PBS the cells were incubated with 1 mL of glycine-HCl 50 mmol/L in PBS (pH 2.8) for 10 min at RT to remove the surface bound activity. Then, cells were washed with 3 mL of ice-cold PBS and lysed as described. Radioactivity was determined in a gamma counter and calculated as percentage of the applied dose per 1×10^6 cells. Experiments were performed three times, and three repetitions per independent experiment were acquired.
(§2) For the assessment of the peptide binding capacity in vitro, 2.5-4×10^5 cells were seeded into 6-well plates and cultivated for 48 h. ^125I-labeled peptide resuspended in 1 mL serum-free medium was added and incubated for either 10 min or 60 min with or without different concentrations of unlabeled peptide (10^−4-10^−11 M). Afterwards, cell monolayers were washed three times with 1 mL phosphate-buffered saline (pH 7.4) to remove unbound peptide and the cells were harvested with 1.4 mL lysis buffer (0.3 M NaOH). To evaluate kinetic properties the cells were exposed to ^177Lu-DOTA-labeled peptides for 10, 30, 60, 120, and 240 min, respectively, and lysed as described. For the efflux experiments the cells were incubated with ^177Lu-DOTA-labeled peptides for 60 min. Thereafter, radioactive medium was replaced by non-radioactive medium and cell monolayers were incubated for additional 60, 120, and 240 min and afterwards lysed as described earlier. The internalization was assessed after exposure of the cells to ^177Lu-DOTA-labeled peptides for 10, 30, 60, 120, and 240 min at 37° C. Unspecifically bound peptide was removed from the surface by incubation with 1 M glycine-HCl solution (pH 2.2) for 10 min. The monolayer cell was rinsed with PBS and cells were lysed as described before. Radioactivity was determined in a y-counter and calculated as percentage of the applied dose per 1×10^6 cells. Experiments were performed three times, and three repetitions per independent experiment were acquired.

HNO399 cells = assay: In vitro binding on HNO399 cells; assay type: cell-based, human; conditions: 60 min; percent applied dose/10^6 cells
Procedure: as §2, with “To evaluate kinetic properties the cells were exposed to ^177Lu-DOTA-labeled peptides for 10, 30, 60, 120, and 240 min, respectively, and lysed as described.” left out, “The internalization was assessed after exposure of the cells to ^177Lu-DOTA-labeled peptides for 10, 30, 60, 120, and 240 min at 37° C.” left out

Capan-2 cells = assay: In vitro binding, internalization and efflux on Capan-2 cells; assay type: cell-based, human; conditions: 60 min
Procedure: (§3) For in vitro binding Studies, 4*10^5-6*10^5 cells were seeded in 6 well plates and cultivated for 24 to 48 hours. At the start of the experiment the medium was replaced with 1 ml serum free medium with a definite amount of radioactive labeled peptide per well. For normal binding assays the cells were incubated for 60 min at 37° C. and afterwards washed 3 times with PBS (pH 7.4). Cells were lysed with 2 times 0.5 ml of a 0.3 M NaOH +0.2% SDS lysis-buffer. Competition assays were performed with ^125I-labeled and unlabelled (10^−6 to 10^−11M) peptide and incubated at the same time for 60 min.
Cells were incubated for 10 to 240 min with ^177Lu-labelled peptide in internalization assays. After the washing steps, the cells were incubated with 1 ml glycine-HCl (1 M, pH 2.2) buffer for 10 min to remove surface bound peptide. Prior to the lyses the cells were washed again. Values are given as percentage of applied dose per 10^6 cells.
The efflux was tested with ^177Lu-labeled peptides. After 60 min incubation the radioactive medium was removed and 1 ml fresh serum-free medium was added. After additional incubation of 60, 120 or 240 min, cell bound activity was measured.

OV433 and OV429 = assay: In vitro binding on ovarian cancer cell lines; assay type: cell-based, human; conditions: highest binding among tested ovarian cell lines
Procedure: as §3

CC(C)C[C@@H]1NC(=O)[C@H](CC(=O)O)NC(=O)CNC(=O)[C@H](CCCNC(=N)N)NC(=O)CNC(=O)[C@H]([C@@H](C)O)NC(=O)[C@@H](NC(=O)[C@H](CCCNC(=N)N)NC(=O)CNC(=O)CN2CCN(CC(=O)O)CCN(CC(=O)O)CCN(CC(=O)O)CC2)CSSC[C@@H](C(=O)N[C@@H](Cc2ccc(O)cc2)C(=O)N2CCC[C@H]2C(=O)N[C@@H](CC(=O)O)C(N)=O)NC(=O)[C@H](CC(C)C)NC(=O)[C@H](CCCNC(=N)N)NC(=O)CNC1=O [^68Ga-DOTA-SFLAP3, metal not drawn] ({DOTA}-GRCTGRGDLGRLCYPD-NH2; disulfide 3-13; N-terminus and C-terminus assumed)
SUV at 1 h [1]: 0.63 SUV
SUV at 1 h [2]: 0.44 SUV
SUV at 1 h [3]: 0.32 SUV
time p.i. at which tracer accumulation was seen in the tumor (Capan-2 xenografts): 20 min
SUV [4]: 4.1 SUV
SUVmax Bight kidney (HNSCC tumor; 60 min): 22.43
SUVmax Blood pool (mediast.) (HNSCC tumor; 60 min): 0.99
SUVmax Cerebral parietal (HNSCC tumor; 60 min): 0.05
SUVmax Colon ascendens (HNSCC tumor; 60 min): 9.2
SUVmax Colon descendens (HNSCC tumor; 60 min): 3.75
SUVmax Duodenum (HNSCC tumor; 60 min): 6.31
SUVmax Hilar lymph nodes (HNSCC tumor; 60 min): 4.07
SUVmax Ileum (HNSCC tumor; 60 min): 4.07
SUVmax Jejunum (HNSCC tumor; 60 min): 10.46
SUVmax Kidney (left) (HNSCC tumor; 60 min): 60.52
SUVmax Liver (left) (HNSCC tumor; 60 min): 0.67
SUVmax Liver (right) (HNSCC tumor; 60 min): 0.73
SUVmax Lung (left) (HNSCC tumor; 60 min): 0.36
SUVmax Lung (right) (HNSCC tumor; 60 min): 0.33
SUVmax Muscle (glut.) (HNSCC tumor; 60 min): 1.94
SUVmax Os ileum (HNSCC tumor; 60 min): 0.53
SUVmax Pancreas head (HNSCC tumor; 60 min): 2.3
SUVmax Plexus choroideus (HNSCC tumor; 60 min): 1.06
SUVmax Spleen (HNSCC tumor; 60 min): 0.54
SUVmax Stomach (HNSCC tumor; 60 min): 12.65
SUVmax Thyroid (HNSCC tumor; 60 min): 3.27
SUVmax Tumor (HNSCC tumor; 60 min, listed as 68Ga-DOTA labeled SFLAP3): 5.07
SUVmax Tumor (HNSCC tumor; 60 min, listed as 68Ga-DOTA-labled SFLAP3): 5.1
SUVmax Bight kidney (HNSCC tumor; 180 min): 26.41
SUVmax Blood pool (mediast.) (HNSCC tumor; 180 min): 1.05
SUVmax Cerebral parietal (HNSCC tumor; 180 min): 0.27
SUVmax Colon ascendens (HNSCC tumor; 180 min): 19.37
SUVmax Colon descendens (HNSCC tumor; 180 min): 2.97
SUVmax Duodenum (HNSCC tumor; 180 min): 8.91
SUVmax Hilar lymph nodes (HNSCC tumor; 180 min): 4.15
SUVmax Ileum (HNSCC tumor; 180 min): 17.65
SUVmax Jejunum (HNSCC tumor; 180 min): 9.2
SUVmax Kidney (left) (HNSCC tumor; 180 min): 36.85
SUVmax Liver (left) (HNSCC tumor; 180 min): 0.76
SUVmax Liver (right) (HNSCC tumor; 180 min): 0.75
SUVmax Lung (left) (HNSCC tumor; 180 min): 0.46
SUVmax Lung (right) (HNSCC tumor; 180 min): 0.33
SUVmax Muscle (glut.) (HNSCC tumor; 180 min): 1.92
SUVmax Os ileum (HNSCC tumor; 180 min): 0.47
SUVmax Pancreas head (HNSCC tumor; 180 min): 2.62
SUVmax Plexus choroideus (HNSCC tumor; 180 min): 1.57
SUVmax Spleen (HNSCC tumor; 180 min): 0.8
SUVmax Thyroid (HNSCC tumor; 180 min): 3.24
SUVmax Tumor (HNSCC tumor; 180 min): 4.64
PET/CT accumulation in tumor lesions [5]: high accumulation over 3 hours into the tumor lesions

^125I-SFLAP3: ^125I-labeled SFLAP3 (GRCTGRGDLGRLCY(125I)PD; disulfide 3-13)
competition of binding by non-radioactively labeled counterpart (carcinoma cell lines): almost completely competed
binding of ^125I-labeled peptide (HNO399 cells): 10.1%
^125I-SFLAP3 binding value (Capan-2 cells): 14%
binding of ^125I-SFLAP3 (OV433 and OV429): 5%
